Consider 2 molecules from article PMC2996723 (Journal of molecular biology, 2009).

Several values for one entry are separate records, joined by “and”; a condition that tells them apart may be missing. Identical values can stand only once.

Data set [1] concerns the target HIV CA protein (p24) (human immunodeficiency virus (HIV)). The experiment in a line: co-sedimentation.
Data set [2] concerns the molecule itself. The experiment in a line: SEC-MALS. For orientation: In gel filtration, larger molecules generally elute earlier.

Take HIV CA protein (p24) (natural protein): the critical concentration in data set [1] was determined as 10 µM.

B1: Rous sarcoma virus (RSV) CA protein, wild type (natural protein)
chain: PVVIKTEGPAWTPLEPKLITRLADTVRTKGLRSPITMAEVEALMSSPLLPHDVTNLMRVILGPAPYALWMDAWGVQLQTVIAAATRDPRHPANGQGRGERTNLNRLKGLADGMVGNPQGQAALLRPGELVAITASALQAFREVARLAEPAGPWADIMQGPSESFVDFANRLIKAVEGSDLPPSARAPVIIDCFRQKSQPDIQQLIRTAPSTLTTPGEIIKYVLDRQKTAPLTDQGIA
One may read the stoichiometry N as the number of molecules, sites or subunits per partner or assembly. On to B1, for which the “stoichiometry N” value in data set [2] was 2 and 3 and 4.
